The assay concerns injured optic nerve axons. As to the kind of experiment: optic nerve crush injury, axon regeneration assessed by CTB anterograde tracing. It counts as in vivo, mice. To be noted: intravitreal 1 μl CNTF (1 μg/μl) immediately before and 3 days after injury. The procedure: We applied optic nerve crush injury to assess axon growth ability in adult CNS in different conditional floxed mice (Park et al., 2008 Science 322, 963-966). Intravitreal application of recombinant adeno-associated viruses expressing Cre (AAVCre) results in Cre-dependent reporter expression in more than 90% of RGCs. Regeneration was assessed in the injured optic nerve axons by using cholera toxin beta subunit (CTB), an anterograde tracer, which was injected into the vitreous of the retina following optic nerve injury two days prior to histological analyses. Neuronal survival was assessed using whole-mount staining of the retinal tissue by immunostaining with an anti-β-III tubulin antibody, a commonly used marker of RGCs.
We intravitreously injected 1 μl CNTF (1 μg/μl) immediately before injury and 3 days after injury (PBS injection was used as control).

Entries after “also recorded” stand apart in the source; their conditions may differ.

B1: ciliary neurotrophic factor (protein, UniProt P26441 1-200, looked up)
Ciliary neurotrophic factor: MAFTEHSPLTPHRRDLCSRSIWLARKIRSDLTALTESYVKHQGLNKNINLDSADGMPVASTDQWSELTEAERLQENLQAYRTFHVLLARLLEDQQVHFTPTEGDFHQAIHTLLLQVAAFAYQIEELMILLEYKIPRNEADGMPINVGDGGLFEKKLWGLKVLQELSQWTVRSIHDLRFISSHQTGIPARGSHYIANNKKM
As for B1, the “numbers and lengths of regenerating axons” value (SOCS3 deleted mice) is reported as “dramatic increase; also recorded: further enhances”. Moreover, the axon regeneration result (control mice (SOCS3f/f with AAV-GFP)) is given as “limited degree of axon regeneration”.

The record behind these values is patent publication US20110124706A1, “SOCS3 Inhibition Promotes CNS Neuron Regeneration” (priority 2009, published 2011).
